Patent US20190055279A1, “NOVEL POLYPEPTIDES WITH IMPROVED PROTEOLYTIC STABILITY, AND METHODS OF PREPARING AND USING SAME” (TUFTS UNIVERSITY, priority 2015, published 2019)

How the values were obtained:
GLP-1 receptor [1] = molecular target: GLP-1 receptor
GLP-1 receptor [2] = molecular target: GLP-1 receptor; remark: listed apart in the source
GLP-1 receptor [3] = molecular target: GLP-1 receptor; remark: listed apart in the source

Sequence of N-acetyl-GLP-1 (peptide) (peptide): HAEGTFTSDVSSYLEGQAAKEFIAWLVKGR

## Exenatide (peptide)
GLP-1 receptor [1]
  EC50 (pM), agonist potency, CRE-luciferase reporter: 1.1 pM

## N-acetyl-GLP-1 (peptide)
GLP-1 receptor [2]
  agonist potency, CRE-luciferase reporter: 50 fold

## dipeptidyl protease 4 (enzyme)
GLP-2
  degradation by DPP4, read as potency loss on human GLP-2R: > 97%
GLP-1 (7-36) amide
  degradation by DPP4, read as potency loss in the GLP-1R agonist assay: > 99.8%
Liraglutide
  degradation by DPP4, read as potency loss in the GLP-1R agonist assay: > 98%

## para-trifluoromethyldiazirine benzyl derivative of GLP-1 (peptide)
GLP-1 receptor [3]
  agonist potency and efficacy: 123 fold
